Assay results published in paper PMC6948101 (Nature, 2019).

Molecular target: the molecule itself
Test: SEC-MALS

B1: DHR10-mica6-NC (designed binder)
chain: GSGGSSEVLELAIRLIKEVVENAQREGYDISEAAAAAAEAFAAVAEAAKAAGITSSEVLELAIRLIKEVVENAQREGYDISEAAAAAAEAFAAVAEAAKAAGITSSEVLELAIRLIKEVVENAQREGYDISEAAAAAAEAFAAVAEAAKAAGIASSEVLELAIRLIKEVVENAQREGYDISEAAAAAAEAFAAVAEAAKAAGITSSEVLELAIRLIKEVVENAQREGYDISEAAAAAAEAFAAVAEAAKAAGIASSEVLELAIRLIKEVVENAQREGYDISEAAAAAAEAFAAVAEAAKAAGIGWE
  stoichiometry N: 2.1 times the MW of a monomer
